Experimental findings from patent US5912224 are described below.

The target of the experiment is TGF-β type I receptor of Mv1Lu cells (mink).

On to myristylated FKBP12, for which the TGFβ induced 3TP-Luc luciferase activity in Mv1Lu cells turned out to be 25 fold.
